Drawing on PMC9881875 (bioRxiv, 2023), this text covers Ki and IC50 for one molecule.

A value given as a limit tells only on which side of the number the result lay.

Targets include NHERF2 PDZ2 (UniProt Q15599 142-280); MAGI1 PDZ2 (UniProt Q96QZ7 471-554); DLG1 PDZ1 (UniProt Q12959 220-317); SNX27 PDZ (UniProt Q96L92 41-135).
Holding throughout (assay): fluorescence polarisation

NHERF2 PDZ2, sequence (Q15599 142-280): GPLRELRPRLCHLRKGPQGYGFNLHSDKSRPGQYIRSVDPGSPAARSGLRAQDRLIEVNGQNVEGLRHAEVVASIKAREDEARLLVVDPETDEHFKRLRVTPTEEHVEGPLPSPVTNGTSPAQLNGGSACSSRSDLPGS
MAGI1 PDZ2, sequence (Q96QZ7 471-554): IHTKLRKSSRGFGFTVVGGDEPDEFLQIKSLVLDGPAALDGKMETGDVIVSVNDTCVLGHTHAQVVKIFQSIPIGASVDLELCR
DLG1 PDZ1, sequence (Q12959 220-317): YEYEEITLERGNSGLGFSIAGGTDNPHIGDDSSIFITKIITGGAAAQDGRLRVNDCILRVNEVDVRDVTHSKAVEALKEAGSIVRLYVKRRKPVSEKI

On to SSRTVQDTRL [_(SSRT)CFTR peptide], for which the Ki is 1.7 ± 0.4 µM with NHERF2 PDZ2, above 1000 µM in the experiment with DLG1 PDZ1 and 0.46 ± 0.11 µM with SNX27 PDZ. In the experiment with MAGI1 PDZ2, this molecule yielded an IC50 above 1000 µM.
